Source: the supplement of paper PMC12764529
± gives the half width of the 95% confidence interval.

Test: folding stability dG unfold (combined trypsin and chymotrypsin); higher = more stable
Procedure, shortened: (§1)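 How resistant each design was to proteolysis was captured as K50, inferred by Bayesian fitting of sequencing counts. Unfolding free energy was then derived relative to a sequence-predicted unfolded-state K50 and a shared folded-state K50, per protease or combined. Digestion used trypsin and chymotrypsin at 11 threefold-diluted concentrations plus a no-protease condition, on mini-proteins under 80 residues without cysteine in a PA-tagged cDNA display construct. Designs were kept only when AlphaFold2 dimer inter-PAE was above 15.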

Sequence | folding stability dG unfold
SAGGPMKVKVTLIVRDKETGEWKEVEREMTLDELRELLASLPPDAEVFVKIEVDGKTVTLSLEELKALSAGG [r13_254_TrROS_Hall] | 4.29 ± 0.12 kcal/mol
SAGGSAMKVVFYGDEASQKEIAEKAKKEGIEYEAYPGSREEILAYVKENYPDVKMIVYPEGKEYLISAGGSA [r15_712_JUSTAS] | 0.179 ± 0.073 kcal/mol
SMKILNDPNIKKVIPVFLMLMSPEEFKKLAEKLANGIKKELEEKGFPIPKDIEIKIIPFKSPEELKKALKSA [r9_204_TrMRF] | 1.93 ± 0.14 kcal/mol
SAGGSAGGSAATKQITYTPPGSNRTYSFTATLTEEDPVTGRKLLELTLPDGTPITLPEGELGSAGGSAGGSA [r18_334_JUSTAS] | 0.163 ± 0.067 kcal/mol
SAGGSAGGSAGGSITITTEPLPSGGRRVTVTLPGSSVVLELEFSPDETEEEVRAAVEAASAGGSAGGSAGGS [r10_825_JUSTAS] | 1.93 ± 0.09 kcal/mol
SAGGSAGGSAGGLRAKIVEIKEVKVKKLYKDPETNEWYEEEKTVKVIKIKIEPAKPGEKISAGGSAGGSAGG [r17_530_TrROS_Hall] | 0.947 ± 0.13 kcal/mol
SAGGSAGGSAGGKTLTLVFKTKEEAEEAAKKLGFKKVEVKEFKNEDGEKYLVVKIELKPSAGGSAGGSAGGS [r10_494_TrROS_Hall] | 2.94 ± 0.22 kcal/mol
SSSVVESSYDPSTGTLTVTVSYDFPPAPPAAATSSTTPVGSNSYTGSGSYTSPAGASSLSSTATGPPTLSSA [r9_780_JUSTAS] | 1.37 ± 0.048 kcal/mol
SAGGSAGGSPMKIEAVELEDGTVAYRLEDGTVLLVTKNEDGTYTVKVFKNGKLVEEKEIKLPPSAGGSAGGS [r12_451_TrROS_Hall] | 2.99 ± 0.071 kcal/mol
SAGLKVEIFPMDGTEQTIPIPAEDADPLVDEFQDNGFKVDNVEVDPDGEVWIPIKFPNGRPWMIEIDWESAG [r5_645_TrROS] | 0.0616 ± 0.29 kcal/mol
SAGGDNFKIEIQFFPDGHIFILIKWPNGDWILIPVPIEYPVPKRDPDGEVKEPGPVTHTHLFLIPANDSAGG [r13_236_TrROS] | 2.74 ± 0.16 kcal/mol
SAGGSAGGSAGGPGWRTIEFWIPVDDFLDEIKLPPGITPIRIIKPNPNGYVRIMIIYPYSAGGSAGGSAGGS [r10_352_TrROS] | 2.89 ± 0.14 kcal/mol
SAGMVTYTVTVPYAPAGKRVRVTLFDEGKEIASFEGVENAPYNQTFTFTAPPFTIRIEYEDGSVDPLPASAG [r5_646_TrMRF] | 3.57 ± 0.23 kcal/mol
SAGGSAGGSSSVTPVPETTLVTLTPPDGSPPVLGTVFPATGTMLLFYPDSVLLLPLGPGTTLFSAGGSAGGS [r12_536_JUSTAS] | 0.82 ± 0.079 kcal/mol
SAGGSAGGAFTVTLPDGRPVRVRLLGATFTFEVRIPPGVPDVVPGAKPDEVVKVTRVVLVVSLDSAGGSAGG [r6_907_TrMRF] | 4.16 ± 0.14 kcal/mol
SAGGKTVEVEFEAPESLSPEEIAAAILAAAPPGYFVKVEEVEVRDRPDGEKVILYKATFYDPDTGDFDSAGG [r13_12_TrMRF] | 2.73 ± 0.048 kcal/mol
SAGGSAGGSAGGMTVERREVFPLGESLVITETREVLDPSSDVPVTVETRVEVLPPEVPPSAGGSAGGSAGGS [r10_599_JUSTAS] | 0.033 ± 0.18 kcal/mol
SAGGPGAEIWFIKIPIEIEMKMKRKRENDPDGNPRPEWEMEMKIEIPIEIYPIRVRLDPDGKIKSIEFSAGG [r13_148_TrROS] | 3.67 ± 0.23 kcal/mol
SAGGSAVIEFELELRTRPDGSVEEEEIIAEARELIEAIPEAENAEILEIRREAFPDGTVRYHVRVRVPSAGG [r13_462_TrMRF] | 3.19 ± 0.072 kcal/mol
SMKEPPKVTIEIEYDEETETVRVRITLEDGTEIEVEVEAENKEEALREAIREALKKIFPELTDEQIEKLLSA [r9_634_TrROS_Hall] | 2.72 ± 0.29 kcal/mol
SAGGMTLEELKAKITKVEVEEREDGSLKLRLTIKVKNEDGSEEEIELTITLPEEEKNMSLEELLEKLLSAGG [r13_319_TrROS_Hall] | 4.03 ± 0.13 kcal/mol

Test: folding stability dG unfold from trypsin proteolysis; higher = more stable
Procedure, shortened: as §1

Sequence | folding stability dG unfold
SAGGSAGGSAGMKSTVTQPGDTWTITITDPETGEVTTYTLTPAQLGELAASSRPVAVAPGSAGGSAGGSAGG [r11_741_JUSTAS] | 0.614 ± 0.053 kcal/mol
SAGGSAGGSAGPITYRLEIRYEIERIEVRVYPGPEGPLVGEFRIEVRLEVRVEALPPEETSAGGSAGGSAGG [r11_24_TrMRF] | 3.69 ± 0.17 kcal/mol
SMSMEEAMEWAEENPDRPVIFINPEDWYIMIYNPKKGKMEMRPITSPEEALEELDDENIDRIYIVPADEISA [r9_775_TrROS] | 1.21 ± 0.064 kcal/mol
SKPILKIKINIPVLKDKNGKEIIPSPNDVLAALEKLGIPVDKAEITKIGKNTIPILILVDLVDGKAYVKDSA [r9_225_TrMRF] | 1.51 ± 0.059 kcal/mol
SAGGSEVETVKVKIKVKIDGKVYEVEAEVEVFTDEDGRKVLRITLPDGRVVEIPLEDADKIEEIEVSAGGSA [r2_297_TrROS_Hall] | 4.7 ± 0.19 kcal/mol
SAGGSAGGRFTVQFRVPGTLEEAREKAEEIAENLPPNFKDVEVDIEPHPKNGWIRVEVQIKMKKSAGGSAGG [r6_164_TrROS] | 0.991 ± 0.16 kcal/mol
SAGGSAGGSAGLFIPETGLLVVYDPAPGTLHVFRITGGDGLEIEPVGEVEVDPDNPELGTAFSAGGSAGGSA [r18_448_TrMRF] | -0.284 ± 0.29 kcal/mol
SAGGSAGGSAGGKKYKIKVYVKDKKTKKWKKIKEIEVDTKEEALEAIKKLPPNYEVKIVPSAGGSAGGSAGG [r7_307_TrROS_Hall] | 4.11 ± 0.14 kcal/mol
SAGGSAGGATTEINLPLKVPGSGVTITKMTYDPNKDVYFVTATFPDGTKKTIKVKSLEELKKLLSAGGSAGG [r6_548_JUSTAS] | 3.83 ± 0.24 kcal/mol
SAGGSAGGSAGGSMVIRNENGYLIEVKTEVVVDEETKKKYVKTEIRIYKEGEEKELPEESAGGSAGGSAGGS [r4_48_TrROS_Hall] | 0.369 ± 0.055 kcal/mol
SKMKVIKTFENKETGEKIVIVKDEKTKKYYIFIYNKDGELVEKIEVEPGETITLPNGKTITIKEGDVIEFSA [r9_340_TrROS_Hall] | 4.24 ± 0.13 kcal/mol
SAGGSAGGSAGGPWYVRIEYTPPNGNKETFIIPSPEEIDEWAEPFGVPVKIEPIPPGDPISAGGSAGGSAGG [r7_456_TrROS] | 0.801 ± 0.02 kcal/mol
SAGGSAGGVERIKKLLEELGAEVVKVEKLENGKTLIYIKVKSEEQREALKALLPEEDIEIIEPESAGGSAGG [r6_83_TrROS_Hall] | 4.69 ± 0.58 kcal/mol
SAGGSAGGSAEPPPLVVVTEVRTITVEIDLDDLSEEEREALENLDTVTITVTRVVVVPREDLSAGGSAGGSA [r18_127_TrROS_Hall] | 2.42 ± 0.22 kcal/mol
SAGGSAGGSAGGSAMTLLSEEELPDGSRRVLMRFPDGTRMELTVHPDGSVEERVTPPAASAGGSAGGSAGGS [r4_483_JUSTAS] | 2.28 ± 0.065 kcal/mol
SAGGSAGGSAGMKIKTKNGEVIEIKVDKKTGKIEITFPDGKKITIDAPNLTIEDIKKLLESAGGSAGGSAGG [r11_729_TrMRF] | 2.47 ± 0.064 kcal/mol
SAGGSAMVVTVPASSLTPESIRALARENPGPVELVFPEEGRRVTVEVRGDGVVRVEEHPLDPAELASAGGSA [r15_751_JUSTAS] | -1.07 ± 0.19 kcal/mol
SAGGSKMPPGYKMIPIEIPFRTPEDLEQAINFAEELAREGFTIIDIDVEIPEGDNYRVEFHIMLPYSAGGSA [r2_350_TrROS] | 1.85 ± 0.056 kcal/mol
SMTTRESTIDASIPGYTVSKVSVTTLPGGERKITITLPSGKVLVLSTPADPALVPLTVTSEFSPEEVAAKSA [r9_1075_JUSTAS] | 0.634 ± 0.057 kcal/mol
SAGGSALRIPPGEKIKVRNPDNGKPFEFKVTNWQMNPNGNAYFQVEMTSDGKKVKWPIPLDDIEVVSAGGSA [r15_62_TrROS] | -0.397 ± 0.21 kcal/mol
SAGTREQVKAIAREIANEIWDTFPDMRGQKFKVKIKVEPEPNGWVRVKVTIQFPGGVQYTFPIWIPVESAGG [r19_194_TrROS] | 3.06 ± 0.11 kcal/mol

Sequence | folding stability dG unfold
SAGGPMKVKVTLIVRDKETGEWKEVEREMTLDELRELLASLPPDAEVFVKIEVDGKTVTLSLEELKALSAGG [r13_254_TrROS_Hall] | 3.84 ± 0.17 kcal/mol
SAGGSAMKVVFYGDEASQKEIAEKAKKEGIEYEAYPGSREEILAYVKENYPDVKMIVYPEGKEYLISAGGSA [r15_712_JUSTAS] | 0.0902 ± 0.072 kcal/mol
SMKILNDPNIKKVIPVFLMLMSPEEFKKLAEKLANGIKKELEEKGFPIPKDIEIKIIPFKSPEELKKALKSA [r9_204_TrMRF] | 1.29 ± 0.039 kcal/mol
SAGGSAGGSAATKQITYTPPGSNRTYSFTATLTEEDPVTGRKLLELTLPDGTPITLPEGELGSAGGSAGGSA [r18_334_JUSTAS] | 0.191 ± 0.061 kcal/mol
SAGGSAGGSAGGSITITTEPLPSGGRRVTVTLPGSSVVLELEFSPDETEEEVRAAVEAASAGGSAGGSAGGS [r10_825_JUSTAS] | 1.47 ± 0.035 kcal/mol
SAGGSAGGSAGGLRAKIVEIKEVKVKKLYKDPETNEWYEEEKTVKVIKIKIEPAKPGEKISAGGSAGGSAGG [r17_530_TrROS_Hall] | 0.537 ± 0.08 kcal/mol
SAGGSAGGSAGGKTLTLVFKTKEEAEEAAKKLGFKKVEVKEFKNEDGEKYLVVKIELKPSAGGSAGGSAGGS [r10_494_TrROS_Hall] | 2.43 ± 0.058 kcal/mol
SSSVVESSYDPSTGTLTVTVSYDFPPAPPAAATSSTTPVGSNSYTGSGSYTSPAGASSLSSTATGPPTLSSA [r9_780_JUSTAS] | 1.43 ± 0.031 kcal/mol
SAGGSAGGSPMKIEAVELEDGTVAYRLEDGTVLLVTKNEDGTYTVKVFKNGKLVEEKEIKLPPSAGGSAGGS [r12_451_TrROS_Hall] | 2.28 ± 0.069 kcal/mol
SAGLKVEIFPMDGTEQTIPIPAEDADPLVDEFQDNGFKVDNVEVDPDGEVWIPIKFPNGRPWMIEIDWESAG [r5_645_TrROS] | -0.0958 ± 0.093 kcal/mol
SAGGDNFKIEIQFFPDGHIFILIKWPNGDWILIPVPIEYPVPKRDPDGEVKEPGPVTHTHLFLIPANDSAGG [r13_236_TrROS] | 1.88 ± 0.097 kcal/mol
SAGGSAGGSAGGPGWRTIEFWIPVDDFLDEIKLPPGITPIRIIKPNPNGYVRIMIIYPYSAGGSAGGSAGGS [r10_352_TrROS] | 2.53 ± 0.1 kcal/mol
SAGMVTYTVTVPYAPAGKRVRVTLFDEGKEIASFEGVENAPYNQTFTFTAPPFTIRIEYEDGSVDPLPASAG [r5_646_TrMRF] | 3.32 ± 0.27 kcal/mol
SAGGSAGGSSSVTPVPETTLVTLTPPDGSPPVLGTVFPATGTMLLFYPDSVLLLPLGPGTTLFSAGGSAGGS [r12_536_JUSTAS] | 0.888 ± 0.034 kcal/mol
SAGGSAGGAFTVTLPDGRPVRVRLLGATFTFEVRIPPGVPDVVPGAKPDEVVKVTRVVLVVSLDSAGGSAGG [r6_907_TrMRF] | 2.82 ± 0.13 kcal/mol
SAGGKTVEVEFEAPESLSPEEIAAAILAAAPPGYFVKVEEVEVRDRPDGEKVILYKATFYDPDTGDFDSAGG [r13_12_TrMRF] | 2.72 ± 0.081 kcal/mol
SAGGSAGGSAGGMTVERREVFPLGESLVITETREVLDPSSDVPVTVETRVEVLPPEVPPSAGGSAGGSAGGS [r10_599_JUSTAS] | -1.32 ± 0.74 kcal/mol
SAGGPGAEIWFIKIPIEIEMKMKRKRENDPDGNPRPEWEMEMKIEIPIEIYPIRVRLDPDGKIKSIEFSAGG [r13_148_TrROS] | 2.77 ± 0.15 kcal/mol
SAGGSAVIEFELELRTRPDGSVEEEEIIAEARELIEAIPEAENAEILEIRREAFPDGTVRYHVRVRVPSAGG [r13_462_TrMRF] | 3.46 ± 0.072 kcal/mol
SMKEPPKVTIEIEYDEETETVRVRITLEDGTEIEVEVEAENKEEALREAIREALKKIFPELTDEQIEKLLSA [r9_634_TrROS_Hall] | 3.45 ± 0.24 kcal/mol
SAGGMTLEELKAKITKVEVEEREDGSLKLRLTIKVKNEDGSEEEIELTITLPEEEKNMSLEELLEKLLSAGG [r13_319_TrROS_Hall] | 4.26 ± 0.27 kcal/mol
